Four molecules from patent WO2018134389A1 (dated 2018) can be followed below.

Test [1] concerns the target T1, Recombinant HIV-1 IIIB gp120 derived from CHO cells (ImmunoDx) (HIV-1 IIIB, UniProt P04578 33-511).
T1 construct: also called HIV-1 IIIB gpl20; HIV-1 gp120
Put plainly: lectin-functionalized plate, labelled glycoprotein, fluorescence read-out.

Test [2] concerns the target T1, Recombinant HIV-1 IIIB gp120 derived …. The test is described as follows: flow cytometry on HEK293T point-mutant transfectants. On the technique in general: Flow cytometry measures light scatter and fluorescence of single cells or particles in a stream.

B1: Sambucus Nigra Agglutinin (other)
chain: VTPPVYPSVSFNLTGADTYEPFLRALQEKVILGNHTAFDLPVLNPESQVSDSNRFVLVPLTNPSGDTVTLAIDVVNLYVVAFSSNGKSYFFSGSTAVQRDNLFVDTTQEELNFTGNYTSLERQVGFGRVYIPLGPKSLDQAISSLRTYTLTAGDTKPLARGLLVVIQMVSEAARFRYIELRIRTSITDASEFTPDLLMLSMENNWSSMSSEIQQAQPGGIFAGVVQLRDERNNSIEVTNFRRLFELTYIAVLLYGCAPVTSSSYSNNAIDAQIIKMPVFRGGEYEKVCSVVEVTRRISGWDGLCVDVRYGHYIDGNPVQLRPCGNECNQLWTFRTDGTIRWLGKCLTASSSVMIYDCNTVPPEATKWVVSIDGTITNPHSGLVLTAPQAAEGTALSLENNIHAARQGWTVGDVEPLVTFIVGYKQMCLRENGENNFVWLEDCVLNRVQQEWALYGDGTIRVNSNRSLCVTSEDHEPSDLIVILKCEGSGNQRWVFNTNGTISNPNAKLLMDVAQRDVSLRKIILYRPTGNPNQQWITTTHPA
notes: also called SNA
B1: the binding result in test [1] was “no binding (tested: 10, 2 and 0.4 μg/ml)”.

B2: DC-SIGN CRD single point mutant S360A, stably expressed on HEK293T cells (receptor)
chain: MSDSKEPRLQQLGLLEEEQLRGLGFRQTRGYKSLAGCLGHGPLVLQLLSFTLLAGLLVQVSKVPSSISQEQSRQDAIYQNLTQLKAAVGELSEKSKLQEIYQELTQLKAAVGELPEKSKLQEIYQELTRLKAAVGELPEKSKLQEIYQELTWLKAAVGELPEKSKMQEIYQELTRLKAAVGELPEKSKQQEIYQELTRLKAAVGELPEKSKQQEIYQELTRLKAAVGELPEKSKQQEIYQELTQLKAAVERLCHPCPWEWTFFQGNCYFMSNSQRNWHDSITACKEVGAQLVVIKSAEEQNFLQLQSSRSNRFTWMGLSDLNQEGTWQWVDGSPLLPSFKQYWNRGEPNNVGEEDCAEFAGNGWNDDKCNLAKFWICKKSAASCSRDEEQFLSPAPATPNPPPA
notes: whole, on cells
Take B2: the binding result in test [2] is “binds”.

B3: DC-SIGN CRD single point mutant D367A, stably expressed on HEK293T cells (receptor)
chain: MSDSKEPRLQQLGLLEEEQLRGLGFRQTRGYKSLAGCLGHGPLVLQLLSFTLLAGLLVQVSKVPSSISQEQSRQDAIYQNLTQLKAAVGELSEKSKLQEIYQELTQLKAAVGELPEKSKLQEIYQELTRLKAAVGELPEKSKLQEIYQELTWLKAAVGELPEKSKMQEIYQELTRLKAAVGELPEKSKQQEIYQELTRLKAAVGELPEKSKQQEIYQELTRLKAAVGELPEKSKQQEIYQELTQLKAAVERLCHPCPWEWTFFQGNCYFMSNSQRNWHDSITACKEVGAQLVVIKSAEEQNFLQLQSSRSNRFTWMGLSDLNQEGTWQWVDGSPLLPSFKQYWNRGEPNNVGEEDCAEFSGNGWNDAKCNLAKFWICKKSAASCSRDEEQFLSPAPATPNPPPA
notes: whole, on cells
In the case of B3, in test [2], the binding result was “binds”.

B4: DC-SIGN CRD single point mutant V351A, stably expressed on HEK293T cells (receptor)
chain: MSDSKEPRLQQLGLLEEEQLRGLGFRQTRGYKSLAGCLGHGPLVLQLLSFTLLAGLLVQVSKVPSSISQEQSRQDAIYQNLTQLKAAVGELSEKSKLQEIYQELTQLKAAVGELPEKSKLQEIYQELTRLKAAVGELPEKSKLQEIYQELTWLKAAVGELPEKSKMQEIYQELTRLKAAVGELPEKSKQQEIYQELTRLKAAVGELPEKSKQQEIYQELTRLKAAVGELPEKSKQQEIYQELTQLKAAVERLCHPCPWEWTFFQGNCYFMSNSQRNWHDSITACKEVGAQLVVIKSAEEQNFLQLQSSRSNRFTWMGLSDLNQEGTWQWVDGSPLLPSFKQYWNRGEPNNAGEEDCAEFSGNGWNDDKCNLAKFWICKKSAASCSRDEEQFLSPAPATPNPPPA
notes: whole, on cells
On to B4, for which the binding result in test [2] was “binds”.
